T1: human CD22-His protein (Sino Biological Inc.) (human, UniProt P20273 20-687)
T1 construct: Bought protein coated on the ELISA plate (100 ng/well); not shown: His tag
T1 sequence (looked up): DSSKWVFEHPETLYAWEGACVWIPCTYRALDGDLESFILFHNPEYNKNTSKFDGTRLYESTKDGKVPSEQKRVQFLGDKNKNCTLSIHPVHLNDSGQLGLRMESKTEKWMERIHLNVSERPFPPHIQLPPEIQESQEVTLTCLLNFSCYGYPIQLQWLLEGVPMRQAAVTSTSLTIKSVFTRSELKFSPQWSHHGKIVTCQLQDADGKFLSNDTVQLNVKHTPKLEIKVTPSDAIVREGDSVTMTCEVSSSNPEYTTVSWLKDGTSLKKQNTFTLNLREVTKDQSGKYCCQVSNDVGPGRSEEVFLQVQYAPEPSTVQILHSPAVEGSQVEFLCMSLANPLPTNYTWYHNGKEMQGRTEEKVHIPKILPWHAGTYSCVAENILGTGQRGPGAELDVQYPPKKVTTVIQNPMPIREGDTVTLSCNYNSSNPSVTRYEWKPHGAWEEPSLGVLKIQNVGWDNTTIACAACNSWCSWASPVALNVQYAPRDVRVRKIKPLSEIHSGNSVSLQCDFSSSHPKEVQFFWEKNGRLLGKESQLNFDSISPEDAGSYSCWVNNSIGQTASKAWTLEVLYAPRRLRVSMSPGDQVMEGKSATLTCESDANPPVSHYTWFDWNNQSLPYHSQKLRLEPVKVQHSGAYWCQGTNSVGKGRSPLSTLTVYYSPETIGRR

T2: human CD22-His protein (Homo sapiens, UniProt P20273)
T2 construct: His; purchased Sino Biological Inc., Beijing, China
T2 sequence (P20273 20-847): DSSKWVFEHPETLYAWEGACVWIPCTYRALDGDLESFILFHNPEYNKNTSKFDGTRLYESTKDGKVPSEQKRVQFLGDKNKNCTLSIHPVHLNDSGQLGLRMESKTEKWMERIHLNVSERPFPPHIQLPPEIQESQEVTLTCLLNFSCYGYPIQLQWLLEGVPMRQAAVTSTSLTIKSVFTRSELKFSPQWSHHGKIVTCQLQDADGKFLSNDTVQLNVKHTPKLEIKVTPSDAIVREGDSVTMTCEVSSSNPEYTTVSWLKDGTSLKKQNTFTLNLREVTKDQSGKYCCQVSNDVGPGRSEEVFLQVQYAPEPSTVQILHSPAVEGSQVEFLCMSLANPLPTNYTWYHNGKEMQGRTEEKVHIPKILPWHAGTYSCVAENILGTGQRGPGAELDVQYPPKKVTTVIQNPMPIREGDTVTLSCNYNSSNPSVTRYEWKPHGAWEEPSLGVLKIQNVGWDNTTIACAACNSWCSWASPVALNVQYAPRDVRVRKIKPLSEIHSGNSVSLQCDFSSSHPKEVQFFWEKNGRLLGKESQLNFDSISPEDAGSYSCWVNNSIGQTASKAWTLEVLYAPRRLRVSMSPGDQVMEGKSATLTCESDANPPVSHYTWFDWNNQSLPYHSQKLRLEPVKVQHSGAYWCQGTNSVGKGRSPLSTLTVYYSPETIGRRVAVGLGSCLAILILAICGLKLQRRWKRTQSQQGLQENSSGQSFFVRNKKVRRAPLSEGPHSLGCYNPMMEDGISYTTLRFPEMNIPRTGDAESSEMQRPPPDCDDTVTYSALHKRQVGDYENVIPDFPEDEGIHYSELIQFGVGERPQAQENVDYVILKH


Tests used:
[1] = target: T1, human CD22-His protein (Sino Biological …); assay: ELISA, human CD22-His coated, anti-human IgG Fc-HRP detection
Method: Microtiter plates (Corning Inc., MA, USA) were coated overnight at 4° C. with human CD22-His protein (100 ng/well, Sino Biological Inc., Beijing, China). The wells were blocked for 1 hour at 37° C. with 150 μl of 3% BSA (w/v) in PBS, after which serial dilutions of the IgG protein prepared in 3% BSA in PBS were added to each well. After incubation for 1.5 hours at 37° C., the plates were washed three times with PBST (PBS containing 0.05% Tween-20), followed by incubation for 1 hour at 37° C. with an HRP-conjugated anti-human IgG (Fc-specific) antibody (Thermo Fisher Scientific, USA). The plates were washed three times with PBST, and the amount of bound antibody was determined by adding 2,2′-azino-bis(3-ethylbenzothiazoline-6-sulfonic acid) (Thermo Fisher Scientific Inc., MA, USA). The resulting OD₄₀₅ was measured using a microplate spectrophotometer.

[2] = target: T1, human CD22-His protein (Sino Biological …); assay: ELISA, human CD22-His coated, anti-human Cκ-HRP detection
Method: (§1) Microtiter plates (Corning Inc., MA, USA) were coated overnight at 4° C. with human CD22-His protein (100 ng/well, Sino Biological Inc., Beijing, China). The wells were blocked for 1 hour at 37° C. with 150 μl of 3% BSA (w/v) in PBS, and serial dilutions of the anti-CD22 scFv-Cκ-HA fusion protein, prepared in 3% BSA in PBS, were added to each well. After incubation for 1.5 hours at 37° C., the plates were washed three times with PBST (PBS containing 0.05% Tween-20), followed by incubation for 1 hour at 37° C. with an HRP-conjugated anti-human CK antibody (Millipore, CA, USA). The plates were washed three times with PBST, and the amount of bound antibody was determined by adding 2,2′-azino-bis(3-ethylbenzothiazoline-6-sulfonic acid) (Thermo Fisher Scientific Inc., MA, USA). The resulting OD₄₀₅ was measured using a microplate spectrophotometer.

[3] = target: T2, human CD22-His protein; assay: ELISA analysis using anti-CD22 scFv-Cκ-HA fusion protein; assay type: binding; conditions: serial dilutions, coated human CD22-His 100 ng/well, FIG. 1
Method: as §1, with “OD405” for “OD₄₀₅”

[4] = test system: OCI-Ly7 cells; assay: Flow cytometry analysis using anti-CD22 scFv-Cκ-HA fusion protein; assay type: binding, human; conditions: scFv-Cκ-HA fusion protein 0.25 μM; FIG. 2
Method: OCI-Ly7 cells were aliquoted into 1.5 ml tubes at a density of 3×10^5 cells per tube. The anti-CD22 scFv-Cκ-HA fusion protein (0.25 μM) was added to each tube, followed by incubation on ice for 30 minutes. After washing twice with MACS buffer (Miltenyi Biotec), the cells were incubated with Alexa Fluor 647-labeled mouse anti-HA antibody (Clone #912426, R&D Systems, MN, USA) on ice for 30 minutes. Then, the cells were washed twice with MACS buffer, resuspended in 150 μL of 1% paraformaldehyde in MACS buffer, and stored overnight at 4° C. The cells were analyzed by flow cytometry using a FACS Canto II instrument (BD Bioscience, San Jose, CA, USA). For each sample, 10,000 cells were analyzed.

binding result [1] | Molecule | also measured
binds | anti-CD22 IgG protein CI4-47_8-1_H1-2-37 (antibody, V domains shown) VH: EVQLLESGGGLVQPGGSLRLSCAASGFTFSRHGMYWVRQAPGKGLEWVSGIGSSGTGTYYGSAVRGRFTISRDNSKNTLYLQMNSLRAEDTAVYYCARDYGSDSGVGWGIYAGEIDAWGQGTLVTVSS VL: LTQPPSVSVSPGQTARITCSGGSGGYGWYQQKPGSAPVSVIYDNDQRPSGIPERFSGSSSGTTVTLTISGVQAEDEADYYCGSYDSSYVGIFGGGTKLTVLR | 
binds | anti-CD22 IgG protein CI4-47_8-1_H1-2-1 (antibody, V domains shown) VH: EVQLLESGGGLVQPGGSLRLSCAASGFTFSKHGHYWVRQAPGKGLEWVSGIGSSGTGTYYGSAVRGRFTISRDNSKNTLYLQMNSLRAEDTAVYYCARDYGSDSGIGWGIYAGEIDAWGQGTLVTVSS VL: LTQPPSVSVSPGQTARITCSGGSGGYGWYQQKPGSAPVSVIYDNDQRPSGIPERFSGSSSGTTVTLTISGVQAEDEADYYCGSYDSSYVGIFGGGTKLTVLR | 
binds | anti-CD22 IgG protein CI4-47_8-1 (antibody, V domains shown) VH: EVQLLESGGGLVQPGGSLRLSCAASGFTFSNYCMSWVRQAPGKGLEWVSGIGSSGTGTYYGSAVRGRFTISRDNSKNTLYLQMNSLRAEDTAVYYCARDYGSDSGCGWGIYAGEIDAWGQGTLVTVSS VL: LTQPPSVSVSPGQTARITCSGGSGGYGWYQQKPGSAPVSVIYDNDQRPSGIPERFSGSSSGTTVTLTISGVQAEDEADYYCGSYDSSYVGIFGGGTKLTVLR | 
 | recombinant anti-CD22 scFv-Cκ-HA fusion protein CI4-47 (scFv, Chicken-derived scFv fused to a human constant kappa region and an HA tag; expressed in HEK293F cells, purified on KappaSelect; also called CI4-47 scFv-Cκ-HA) scFv: LTQPSSVSANPGETVKITCSGGSGGYGWYQQKSPGSAPVSLIYDNDQRPSDIPSRFSGSKSGSTGTLTITGVQADDEAVYYCGSYDSSYVGIFGAGTTLTVLGGGGSGGGGSGGGGSAVTLDESGGGLQTPGGALSLVCKASGFTFSNYCMQWVRQAPGKGLEWVAGIGSSGTGTYYGSAVRGRATISRDNGQSTVRLQLNNLRAEDTGTYYCARDYGSDSGCGWGIYAGEIDAWGHGTEVIVSSGGGGSGGGGSGGGGSRTVAAPSVFIFPPSDEQLKSGTASVVCLLNNFYPREAKVQWKVDNALQSGNSQESVTEQDSKDSTYSLSSTLTLSKADYEKHKVYACEVTHQGLSSPVTKSFNRGESGGAYPYDVPDYAS | binding result [2]: binds
 | CI4-47: recombinant anti-CD22 scFv-Cκ-HA fusion protein (protein) scFv: LTQPSSVSANPGETVKITCSGGSGGYGWYQQKSPGSAPVSLIYDNDQRPSDIPSRFSGSKSGSTGTLTITGVQADDEAVYYCGSYDSSYVGIFGAGTTLTVLGGGGSGGGGSGGGGSAVTLDESGGGLQTPGGALSLVCKASGFTFSNYCMQWVRQAPGKGLEWVAGIGSSGTGTYYGSAVRGRATISRDNGQSTVRLQLNNLRAEDTGTYYCARDYGSDSGCGWGIYAGEIDAWGHGTEVIVSSGGGGSGGGGSGGGGSRTVAAPSVFIFPPSDEQLKSGTASVVCLLNNFYPREAKVQWKVDNALQSGNSQESVTEQDSKDSTYSLSSTLTLSKADYEKHKVYACEVTHQGLSSPVTKSFNRGESGGAYPYDVPDYAS | binding to CD22 (enzyme immunoassay, OD405) [3]: bind well; binding to OCI-Ly7 cells (flow cytometry) [4]: strong binding
 | recombinant anti-CD22 scFv-Cκ-HA fusion protein 2-3-14 (scFv, The text prints the clone name 2-3-14 as 'Feb; 3, 2014' in several paragraphs (date conversion artefact); also called Feb; 3, 2014; 2-3-14 scFv-Cκ-HA) scFv: LTQPSSVSANPGETVKITCSGSNNTYGWYQQKAPGSAPVTVIYDNTNRPSDIPSRFSGSKSGSTNTLTITGVQAEDEAVYFCGSRDSTYVGIFGAGTTLTVLGGGGSGGGGSGGGGSAVTLDESGGGLQTPGGGLSLVCKASGFSFSDYGMGWVRQAPGKGLEFVASISNTGSYTDYGAAVKGRATISRDNGQSTLRLQLNNLRAEDTGTYFCAKSAYGGSYGSSSIDAWGHGTEVIVSSGGGGSGGGGSGGGGSRTVAAPSVFIFPPSDEQLKSGTASVVCLLNNFYPREAKVQWKVDNALQSGNSQESVTEQDSKDSTYSLSSTLTLSKADYEKHKVYACEVTHQGLSSPVTKSFNRGESGGAYPYDVPDYAS | binding result [2]: binds
binds | anti-CD22 IgG protein 2-3-14 (antibody, V domains shown, also called Feb; 3, 2014) VH: AVTLDESGGGLQTPGGGLSLVCKASGFSFSDYGMGWVRQAPGKGLEFVASISNTGSYTDYGAAVKGRATISRDNGQSTLRLQLNNLRAEDTGTYFCAKSAYGGSYGSSSIDAWGHGTEVIVSS VL: LTQPSSVSANPGETVKITCSGSNNTYGWYQQKAPGSAPVTVIYDNTNRPSDIPSRFSGSKSGSTNTLTITGVQAEDEAVYFCGSRDSTYVGIFGAGTTLTVLR | 
binds | anti-CD22 IgG protein 2-3-14_H2-40 (antibody, V domains shown) VH: AVTLDESGGGLQTPGGGLSLVCKASGFSFSDYGMGWVRQAPGKGLEFVAFLGSSSSYTDYGAAVKGRATISRDNGQSTLRLQLNNLRAEDTGTYFCAKSAYGGSYGSSSIDAWGHGTEVIVSS VL: LTQPSSVSANPGETVKITCSGSNNTYGWYQQKAPGSAPVTVIYDNTNRPSDIPSRFSGSKSGSTNTLTITGVQAEDEAVYFCGSRDSTYVGIFGAGTTLTVLR | 
binds | anti-CD22 IgG protein 2-3-14_H1-24 (antibody, V domains shown) VH: AVTLDESGGGLQTPGGGLSLVCKASGFAFGRSSMGWVRQAPGKGLEFVASISNTGSYTDYGAAVKGRATISRDNGQSTLRLQLNNLRAEDTGTYFCAKSAYGGSYGSSSIDAWGHGTEVIVSS VL: LTQPSSVSANPGETVKITCSGSNNTYGWYQQKAPGSAPVTVIYDNTNRPSDIPSRFSGSKSGSTNTLTITGVQAEDEAVYFCGSRDSTYVGIFGAGTTLTVLR | 
